B1: ZNF24 (parent)
chain: THTKEQILELVVLEQFVAILPKEL

Variants of: B1
Experiment: protein stability index of a GFP-peptide fusion (GPS, HEK-293T) (PSI 1-6); higher = more stable
Details: c terminus: a fixed tail appended
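Also: lentivirally expressed fusions sorted by FACS into six bins by GFP to DsRed ratio, PSI derived from sequencing read proportions per bin multiplied by bin number.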

Compared with THTFEQILELVVLEQFVAILPKEL [K4F], THTDEQILELVVLEQFVAILPKEL [K4D] is lower in protein stability index: 4.57 for the first, 2.45 for the second.

Compared with THTKEQILELVVLEQFVAILPDEL [K22D], THTKEQILELVVLEQFVAILPNEL [K22N] is lower in protein stability index: 3.16 for the first, 2.39 for the second.

First: THTKEQILELVVLEQFVAILPTEL [K22T]
Second: THTKEQILELVVLEQFVAILPQEL [K22Q]
The protein stability index of the first is higher: 2.89 for the first, 2.7 for the second.

Compared with THTKEQILELVVLEQFVAILPVEL [K22V], THTKEQILELVVDEQFVAILPKEL [L13D] is lower in protein stability index: 2.71 for the first, 2.29 for the second.

First: THTKEQILELVVSEQFVAILPKEL [L13S]
Second: THTKEQILELVVAEQFVAILPKEL [L13A]
The protein stability index of the first is higher: 1.55 for the first, 1.51 for the second.

Going from THTKEQILELVVEEQFVAILPKEL [L13E] to THTKEQILELVVQEQFVAILPKEL [L13Q], the protein stability index rises from 1.9 to 2.34.

Going from THTKEQILELVVLKQFVAILPKEL [E14K] to THTKEQILELVVLYQFVAILPKEL [E14Y], the protein stability index rises from 2.61 to 3.47.

First: THTKEQILELVVLAQFVAILPKEL [E14A]
Second: THTKEQILELVVLHQFVAILPKEL [E14H]
The protein stability index of the first is lower: 2.14 for the first, 2.94 for the second.

First: THTKEQILELVVLLQFVAILPKEL [E14L]
Second: THTKEQILELVVLFQFVAILPKEL [E14F]
The protein stability index of the first is lower: 2.05 for the first, 2.48 for the second.

Going from THTKEQILELVVLTQFVAILPKEL [E14T] to THTKIQILELVVLEQFVAILPKEL [E5I], the protein stability index rises from 2.64 to 3.67.

First: THTKKQILELVVLEQFVAILPKEL [E5K]
Second: THTKEQILELVVLEQFVAILPKEW [L24W]
The protein stability index of the first is lower: 2.23 for the first, 2.54 for the second.

Going from THTKEQILELVVLEQFVAILPKEY [L24Y] to THTKEQILELVVLEQFVAILPKEE [L24E], the protein stability index falls from 3.41 to 1.7.

First: THTKEQILELVVLEQFVAILPKED [L24D]
Second: THTKEQILELVVLEQFVAILKKEL [P21K]
The protein stability index of the first is lower: 1.67 for the first, 3.31 for the second.

Compared with THTKEQILELVVLEQFVAILDKEL [P21D], THTKEQILELVVLEQFVAILGKEL [P21G] is lower in protein stability index: 4.16 for the first, 2.21 for the second.

Going from THTKEQILELVVLEQFVAILMKEL [P21M] to THTKEQILELVVLEQFVAILFKEL [P21F], the protein stability index falls from 3.76 to 1.92.

Going from THTKEQILELVVLEQFVAILTKEL [P21T] to THTKEQILELVVLEQFVAILHKEL [P21H], the protein stability index rises from 2.57 to 3.6.

First: THTKEQILELVVLEQFVAILAKEL [P21A]
Second: THTKEQELELVVLEQFVAILPKEL [I7E]
The protein stability index of the first is higher: 3.78 for the first, 2.55 for the second.

First: THTKEQWLELVVLEQFVAILPKEL [I7W]
Second: THTKEQHLELVVLEQFVAILPKEL [I7H]
The protein stability index of the first is higher: 2.51 for the first, 2.04 for the second.

First: THTKEQGLELVVLEQFVAILPKEL [I7G]
Second: THTKEQILELVDLEQFVAILPKEL [V12D]
The protein stability index of the first is lower: 1.76 for the first, 2.27 for the second.

Going from THTKEQILELVKLEQFVAILPKEL [V12K] to THTKEQILELVQLEQFVAILPKEL [V12Q], the protein stability index falls from 2.07 to 2.05.

Compared with THTKEQILELVCLEQFVAILPKEL [V12C], THTKEQILELVVLEQFVAIFPKEL [L20F] is higher in protein stability index: 2.23 for the first, 2.83 for the second.

Going from THTKEQILELVVLEQFVAIIPKEL [L20I] to THTKEQILELVVLEQFVAIRPKEL [L20R], the protein stability index falls from 3.78 to 2.61.

Compared with THTKEQILELVVLEQFVAITPKEL [L20T], THTKEQILELVVLETFVAILPKEL [Q15T] is higher in protein stability index: 2.44 for the first, 3.75 for the second.

Compared with THTKEQILELVVLEEFVAILPKEL [Q15E], THTKEQILELVVLEVFVAILPKEL [Q15V] is higher in protein stability index: 2.55 for the first, 3.51 for the second.

First: THTKEQILELVVLESFVAILPKEL [Q15S]
Second: THTKEQILELVVLEFFVAILPKEL [Q15F]
The protein stability index of the first is higher: 2.93 for the first, 2.79 for the second.

First: THTKEQILELVVLERFVAILPKEL [Q15R]
Second: THTKEQILELVVLEPFVAILPKEL [Q15P]
The protein stability index of the first is higher: 2.81 for the first, 2.4 for the second.

Compared with THEKEQILELVVLEQFVAILPKEL [T3E], THRKEQILELVVLEQFVAILPKEL [T3R] is lower in protein stability index: 3.23 for the first, 2.26 for the second.

Going from THYKEQILELVVLEQFVAILPKEL [T3Y] to WHTKEQILELVVLEQFVAILPKEL [T1W], the protein stability index falls from 3.59 to 2.72.

First: AHTKEQILELVVLEQFVAILPKEL [T1A]
Second: YHTKEQILELVVLEQFVAILPKEL [T1Y]
The protein stability index of the first is higher: 3.53 for the first, 2.79 for the second.

Going from LHTKEQILELVVLEQFVAILPKEL [T1L] to VHTKEQILELVVLEQFVAILPKEL [T1V], the protein stability index rises from 1.56 to 3.19.

First: MHTKEQILELVVLEQFVAILPKEL [T1M]
Second: FHTKEQILELVVLEQFVAILPKEL [T1F]
The protein stability index of the first is lower: 1.92 for the first, 3.59 for the second.

First: THTKEGILELVVLEQFVAILPKEL [Q6G]
Second: THTKERILELVVLEQFVAILPKEL [Q6R]
The protein stability index of the first is higher: 3.09 for the first, 2.56 for the second.

Compared with THTKEVILELVVLEQFVAILPKEL [Q6V], THTKEAILELVVLEQFVAILPKEL [Q6A] is lower in protein stability index: 3.24 for the first, 2.33 for the second.

Compared with THTKEQILELVVLEQKVAILPKEL [F16K], THTKEQILELVVLEQWVAILPKEL [F16W] is higher in protein stability index: 1.95 for the first, 2.54 for the second.

First: THTKEQILELVVLEQLVAILPKEL [F16L]
Second: THTKEQILELVVLEQRVAILPKEL [F16R]
The protein stability index of the first is higher: 3.14 for the first, 1.99 for the second.

Compared with THTKEQILELVVLEQIVAILPKEL [F16I], THTKEQILELVVLEQNVAILPKEL [F16N] is higher in protein stability index: 1.43 for the first, 2.21 for the second.

First: THTKEQILELVVLEQYVAILPKEL [F16Y]
Second: THTKEQILELLVLEQFVAILPKEL [V11L]
The protein stability index of the first is lower: 1.76 for the first, 2.43 for the second.

Compared with THTKEQILELVVLEQFVAILPKML [E23M], THTKEQILELVVLEQFVAILPKIL [E23I] is lower in protein stability index: 3.72 for the first, 2.56 for the second.

Going from THTKEQILELVVLEQFVAILPKPL [E23P] to THTKEQILELVVLEQFVAILPKNL [E23N], the protein stability index falls from 3.16 to 2.97.

Going from THTKEQILELVVLEQFVAILPKSL [E23S] to THTKEQILELVVLEQFVAILPKCL [E23C], the protein stability index rises from 2.01 to 3.17.

Compared with THTKEQILELVVLEQFVALLPKEL [I19L], THTKEQILELVVLEQFVARLPKEL [I19R] is lower in protein stability index: 2.38 for the first, 2.16 for the second.

First: THTKEQILELVVLEQFVATLPKEL [I19T]
Second: THTKEQILELVVLEQFVAGLPKEL [I19G]
The protein stability index of the first is higher: 1.8 for the first, 1.52 for the second.

First: THTKEQILELVVLEQFFAILPKEL [V17F]
Second: THTKEQILELVVLEQFTAILPKEL [V17T]
The protein stability index of the first is higher: 2.47 for the first, 1.97 for the second.

Going from THTKEQILELVVLEQFCAILPKEL [V17C] to THTKEQILELVVLEQFEAILPKEL [V17E], the protein stability index falls from 2.49 to 1.91.

Compared with THTKEQILELVVLEQFLAILPKEL [V17L], THTKEQILALVVLEQFVAILPKEL [E9A] is higher in protein stability index: 2.47 for the first, 3.22 for the second.

First: THTKEQILRLVVLEQFVAILPKEL [E9R]
Second: THTKEQILQLVVLEQFVAILPKEL [E9Q]
The protein stability index of the first is lower: 2.49 for the first, 2.69 for the second.

Compared with THTKEQILHLVVLEQFVAILPKEL [E9H], THTKEQILLLVVLEQFVAILPKEL [E9L] is lower in protein stability index: 3.25 for the first, 2.62 for the second.

Source: the supplement of paper PMC10567573
